# Key:
# [1] = target: T1, integrin αvβ3, purified from human placenta (human, UniProt P06756 31-1048; P05106 27-788); test: SPR (BIAcore), purified Fab over immobilized αvβ3
# T1 construct: mature; Native heterodimer, immobilized on ELISA plates or on the BIAcore chip; biotinylated in capture lift and capture ELISA screens; also called αvβ3 receptor; vitronectin receptor
# [2] = target: T1, integrin αvβ3, purified from human …; test: SPR (BIAcore), purified Fab over immobilized αvβ3; remark: listed apart in the source
# Procedure: The affinities of select variants were further characterized by utilizing surface plasmon resonance (BIAcore) to measure the association and dissociation rates of purified Fab with immobilized αᵥβ₃. […] To obtain association rate constants (kₒₙ), the binding rate at five different Fab concentrations, ranging from 5-40 μg/ml in 50 mM Tris-HCl, pH 7.4, 100 mM NaCl, 2 mM CaCl₂, and 1 mM MgCl₂, was determined at a flow rate of 10 μl/min. Dissociation rate constants (koff) were the average of five measurements obtained by analyzing the dissociation phase at an increased flow rate (40 μl/min). Sensorgrams were analyzed with the BIAevaluation 2.1 program (Pharmacia). Residual Fab was removed after each measurement with 10 mM HCl, 2 mM CaCl₂ and 1 mM MgCl₂.
# [3] = target: T1, integrin αvβ3, purified from human …; test: ELISA titration of Fab on immobilized αvβ3
# Procedure: Just prior to use, the plates were washed two times and were then incubated 1 h at 25° C. with various dilutions of Fab. […] All dilutions and washes were in 50 mM Tris-HCl, pH 7.4, 100 mM NaCl, 2 mM CaCl₂, and 1 mM MgCl₂.
# T1 sequence (P06756 31-1048, form in doubt, chain 1 of 2): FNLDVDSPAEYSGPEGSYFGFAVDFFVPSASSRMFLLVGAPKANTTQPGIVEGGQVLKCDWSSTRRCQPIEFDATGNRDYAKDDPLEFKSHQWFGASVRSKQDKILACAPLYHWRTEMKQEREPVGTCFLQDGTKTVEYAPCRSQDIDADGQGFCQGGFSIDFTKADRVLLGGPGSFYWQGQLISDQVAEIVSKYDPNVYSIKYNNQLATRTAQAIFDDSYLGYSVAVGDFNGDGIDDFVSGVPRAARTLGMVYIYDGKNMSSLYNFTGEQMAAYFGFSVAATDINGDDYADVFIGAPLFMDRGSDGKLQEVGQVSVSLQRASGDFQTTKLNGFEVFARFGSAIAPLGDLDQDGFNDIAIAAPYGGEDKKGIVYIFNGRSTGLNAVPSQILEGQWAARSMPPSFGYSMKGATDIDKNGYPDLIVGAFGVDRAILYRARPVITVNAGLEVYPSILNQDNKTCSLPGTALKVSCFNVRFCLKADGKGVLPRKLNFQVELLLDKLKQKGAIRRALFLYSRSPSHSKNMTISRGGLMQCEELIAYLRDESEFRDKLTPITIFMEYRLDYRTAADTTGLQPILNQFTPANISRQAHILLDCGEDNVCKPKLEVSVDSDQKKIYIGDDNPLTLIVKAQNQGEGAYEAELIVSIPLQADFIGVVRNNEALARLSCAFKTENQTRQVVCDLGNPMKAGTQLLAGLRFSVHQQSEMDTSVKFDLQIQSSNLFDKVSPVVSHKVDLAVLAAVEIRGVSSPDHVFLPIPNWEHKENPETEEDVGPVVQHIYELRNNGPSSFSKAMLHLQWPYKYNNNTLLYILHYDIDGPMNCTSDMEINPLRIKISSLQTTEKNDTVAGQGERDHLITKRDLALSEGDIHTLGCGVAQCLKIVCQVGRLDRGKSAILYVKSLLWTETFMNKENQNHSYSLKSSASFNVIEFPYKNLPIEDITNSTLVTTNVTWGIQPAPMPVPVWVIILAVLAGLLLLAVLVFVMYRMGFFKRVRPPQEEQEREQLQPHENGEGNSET
# T1 sequence (P05106 27-788, form in doubt, chain 2 of 2): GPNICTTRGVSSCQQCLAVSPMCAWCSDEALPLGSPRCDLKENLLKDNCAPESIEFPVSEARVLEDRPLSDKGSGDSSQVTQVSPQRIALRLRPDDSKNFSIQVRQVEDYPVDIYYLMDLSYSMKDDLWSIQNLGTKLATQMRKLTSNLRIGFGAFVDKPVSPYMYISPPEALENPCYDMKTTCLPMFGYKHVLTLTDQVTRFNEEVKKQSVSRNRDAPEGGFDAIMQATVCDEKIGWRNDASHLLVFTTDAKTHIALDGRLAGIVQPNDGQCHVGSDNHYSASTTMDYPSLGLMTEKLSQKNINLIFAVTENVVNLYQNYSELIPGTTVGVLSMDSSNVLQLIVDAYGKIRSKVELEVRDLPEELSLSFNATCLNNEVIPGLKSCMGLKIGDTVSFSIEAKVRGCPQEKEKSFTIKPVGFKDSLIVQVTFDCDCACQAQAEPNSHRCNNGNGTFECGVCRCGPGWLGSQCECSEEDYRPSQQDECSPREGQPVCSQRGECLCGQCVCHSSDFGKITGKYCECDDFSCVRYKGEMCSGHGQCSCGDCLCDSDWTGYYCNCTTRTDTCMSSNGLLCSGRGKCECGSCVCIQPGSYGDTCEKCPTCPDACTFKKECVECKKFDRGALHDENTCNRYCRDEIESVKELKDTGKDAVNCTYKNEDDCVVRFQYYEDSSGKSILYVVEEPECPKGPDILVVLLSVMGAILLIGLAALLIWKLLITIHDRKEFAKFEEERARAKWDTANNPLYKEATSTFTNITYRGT
binder,measurement,setting,value
"LM609 grafted antibody combinatorial clone C176 (Fab, V domains shown, Fab) VH: QVQLVESGGGVVQPGRSLRLSCAASGFTFSSYDMSWVRQAPGKGLEWVAKVSSGGGSTYYPDTVQGRFTISRDNSKNTLYLQMNSLRAEDTAVYYCARHNYGSFATWGQGTTVTVSS VL: EIVLTQSPATLSLSPGERATLSCQASQSISNFLHWYQQRPGQAPRLLIRYRSQSISGIPARFSGSGSGTDFTLTISSLEPEDFAVYYCQQSGSWPHTFGGGTKVEIK",fold slower dissociation rate than parent,[1],> 10 fold
same,Kd,[2],0.9 nM
same,koff,[2],0.000192 s⁻¹
same,kon,[2],225000 M⁻¹ s⁻¹
"LM609 grafted antibody combinatorial clone V357D (Fab, V domains shown, Fab; V357D is a clone name, not a substitution) VH: QVQLVESGGGVVQPGRSLRLSCAASGFTFSSYDMSWVRQAPGKGLEWVAKVSSGGGSTYYLDTVQGRFTISRDNSKNTLYLQMNSLRAEDTAVYYCARHNYGSFADWGQGTTVTVSS VL: EIVLTQSPATLSLSPGERATLSCQASQSISNFLHWYQQRPGQAPRLLIRYRSQSISGIPARFSGSGSGTDFTLTISSLEPEDFAVYYCQQSGSWPHTFGGGTKVEIK",fold enhanced affinity over parent LM609 grafted antibody,[1],> 50 fold
same,fold slower dissociation rate than parent,[1],> 10 fold
same,Kd,[2],0.5 nM
same,koff,[2],0.00014 s⁻¹
same,kon,[2],279000 M⁻¹ s⁻¹
"LM609 grafted antibody variant D101 (Fab, V domains shown, Fab) VH: QVQLVESGGGVVQPGRSLRLSCAASGFTFSSYDMSWVRQAPGKGLEWVAKVSSGGGSTYYLDTVQGRFTISRDNSKNTLYLQMNSLRAEDTAVYYCARHNYGSFDYWGQGTTVTVSS VL: EIVLTQSPATLSLSPGERATLSCQASQSISNHLHWYQQRPGQAPRLLIRYRSQSISGIPARFSGSGSGTDFTLTISSLEPEDFAVYYCQQSGSWPHTFGGGTKVEIK",fold enhanced binding over parent LM609 grafted antibody,[3],> 3 fold
"LM609 grafted antibody variant E64 (Fab, V domains shown, Fab) VH: QVQLVESGGGVVQPGRSLRLSCAASGFTFSSYDMSWVRQAPGKGLEWVAKVSSGGGSTYYLDTVEGRFTISRDNSKNTLYLQMNSLRAEDTAVYYCARHNYGSFAYWGQGTTVTVSS VL: EIVLTQSPATLSLSPGERATLSCQASQSISNHLHWYQQRPGQAPRLLIRYRSQSISGIPARFSGSGSGTDFTLTISSLEPEDFAVYYCQQSGSWPHTFGGGTKVEIK",fold enhanced binding over parent LM609 grafted antibody,[3],> 3 fold
"LM609 grafted antibody variant E102 (Fab, V domains shown, Fab) VH: QVQLVESGGGVVQPGRSLRLSCAASGFTFSSYDMSWVRQAPGKGLEWVAKVSSGGGSTYYLDTVQGRFTISRDNSKNTLYLQMNSLRAEDTAVYYCARHNYGSFAEWGQGTTVTVSS VL: EIVLTQSPATLSLSPGERATLSCQASQSISNHLHWYQQRPGQAPRLLIRYRSQSISGIPARFSGSGSGTDFTLTISSLEPEDFAVYYCQQSGSWPHTFGGGTKVEIK",fold enhanced binding over parent LM609 grafted antibody,[3],> 3 fold
"LM609 grafted antibody variant L30 (Fab, V domains shown, Fab) VH: QVQLVESGGGVVQPGRSLRLSCAASGFTFLSYDMSWVRQAPGKGLEWVAKVSSGGGSTYYLDTVQGRFTISRDNSKNTLYLQMNSLRAEDTAVYYCARHNYGSFAYWGQGTTVTVSS VL: EIVLTQSPATLSLSPGERATLSCQASQSISNHLHWYQQRPGQAPRLLIRYRSQSISGIPARFSGSGSGTDFTLTISSLEPEDFAVYYCQQSGSWPHTFGGGTKVEIK",fold enhanced binding over parent LM609 grafted antibody,[3],> 3 fold
"LM609 grafted antibody variant M102 (Fab, V domains shown, Fab) VH: QVQLVESGGGVVQPGRSLRLSCAASGFTFSSYDMSWVRQAPGKGLEWVAKVSSGGGSTYYLDTVQGRFTISRDNSKNTLYLQMNSLRAEDTAVYYCARHNYGSFAMWGQGTTVTVSS VL: EIVLTQSPATLSLSPGERATLSCQASQSISNHLHWYQQRPGQAPRLLIRYRSQSISGIPARFSGSGSGTDFTLTISSLEPEDFAVYYCQQSGSWPHTFGGGTKVEIK",fold enhanced binding over parent LM609 grafted antibody,[3],> 3 fold
"LM609 grafted antibody variant Q96 (Fab, V domains shown, Fab) VH: QVQLVESGGGVVQPGRSLRLSCAASGFTFSSYDMSWVRQAPGKGLEWVAKVSSGGGSTYYLDTVQGRFTISRDNSKNTLYLQMNSLRAEDTAVYYCARHNYGSFAYWGQGTTVTVSS VL: EIVLTQSPATLSLSPGERATLSCQASQSISNHLHWYQQRPGQAPRLLIRYRSQSISGIPARFSGSGSGTDFTLTISSLEPEDFAVYYCQQSGSWPQTFGGGTKVEIK",fold enhanced binding over parent LM609 grafted antibody,[3],> 3 fold

# — patent US20060204492A1 (published 2006)
